Assay results published in article PMC6821609.

T1: HNF4α (hepatocyte nuclear factor 4α) (Homo sapiens, UniProt P41235 1-474)
T1 sequence: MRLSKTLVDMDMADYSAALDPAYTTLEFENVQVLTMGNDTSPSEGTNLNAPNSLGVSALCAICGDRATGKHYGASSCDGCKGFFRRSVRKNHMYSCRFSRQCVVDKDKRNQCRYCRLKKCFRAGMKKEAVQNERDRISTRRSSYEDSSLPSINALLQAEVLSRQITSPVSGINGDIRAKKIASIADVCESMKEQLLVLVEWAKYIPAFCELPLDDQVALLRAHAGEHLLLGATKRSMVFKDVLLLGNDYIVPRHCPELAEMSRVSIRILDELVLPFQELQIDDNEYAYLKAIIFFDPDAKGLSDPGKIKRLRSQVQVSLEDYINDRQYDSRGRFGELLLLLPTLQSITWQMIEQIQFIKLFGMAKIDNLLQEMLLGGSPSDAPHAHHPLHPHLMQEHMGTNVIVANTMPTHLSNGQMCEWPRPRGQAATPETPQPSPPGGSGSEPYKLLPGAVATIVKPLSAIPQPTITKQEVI


Molecular target: T1, HNF4α (hepatocyte nuclear factor 4α)
Assay: EMSA

| Binder | binding result |
| --- | --- |
| F9-mut (cfa_F9n_mut_Biotin) (dsDNA) DNA 1: CCAGAAGTAAATACAGCTCAACTTGTATTTGGAACAACTGGTCAACC DNA 2: GGTTGACCAGTTGTTCCAAATACAAGTTGAGCTGTATTTACTTCTGG | no binding |
| F9-wt (cfa_F9n_wt_Biotin) (dsDNA) DNA 1: CAGAAGTAAATACAGCTCAACTTGTACTTTGGAACAACTGGTCAACC DNA 2: GGTTGACCAGTTGTTCCAAAGTACAAGTTGAGCTGTATTTACTTCTG | binds |
